Measurements reported in the supplement of paper PMC9170038.

These sequences were tested on MS2 coat protein (assay: apparent KD of MS2 coat protein; higher = weaker reporter binding). Conditions: Eterna round: R107; input ligand: arginine 13.2 mM.
In short: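 For every design, apparent KD is the median of normalised binding-curve fits from its clusters. The RNA switches were transcribed on-chip from Illumina sequencing clusters and titrated with SNAP-549-labelled MS2 coat protein (twofold steps, 0.7 or 1.5 nM to 3 µM; 0.8–1.5 h to 10–20 min per step). Titrations used 100 mM Tris-HCl pH 7.5, 80 mM KCl, 4 mM MgCl2, without or with constant ligand.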

Row | Sequence | apparent KD of MS2 coat protein
1 | CGCACAUGAGGAUCACCCAUGUGAGGGCGUCGAGGACCGGUACGGCCGCCACUCGCAGGACAUGAGGAUCACCCAUGUGCCGCCG [SSTA DOUBLE!!! :-D #4] | 39.8 nM
2 | ACAUGAGGAUCACCCAUGUAAUAAUCAGAAGGAGCGUGGAAUAACACAGGUAGGUCGCUGAUGUUUGGUUAAAAUUAUUCGUGAA [JR_ExcArginiA_Sub001] | 12.2 nM

Same assay, conditions: Eterna round: R107; input ligand: none

Row | Sequence | apparent KD of MS2 coat protein
3 | GCUAGGUCUACGGCCGCCACUAGACGUGGGUUAAACAUGAGGAUCACCCAUGUGCUACAGGCGCAUAGGACCGGGUAGACCUAGC [SSTB NP+V+V2 #9 +-Same Structure] | 494 nM
4 | GGGCAAGAGGGAAGGAGCGUCAGCUGAGUCACAUGAGGAUCACCCAUGUAGCACAUAGUGUGACAGGUAGGUCGCCCUCUGCCCU [SS-ArgB5] | 9.19 nM
5 | UUCGUUUACGGAAGGAGCGACGGACAUCGGUGAUCUAUGCACAUGAGGAUCACCCAUGUACGUCAGGUAGGUCGCCGUUAAGAGU [XArg-B28] | 80.8 nM
6 | GGUCUCUGGAGCGAUACCAGCUUAAGUGUACUGGCCAGGUACAUGAGGAUCACCCAUGUAAGCCCUUGGCAGCGCUCCAGAGACC [#1 Exclusion - Theophylline B Attempt #14 (HarryS)] | 10.4 nM
7 | AAGGUGAUCCGUGAUACCAGCUCAACAUGAGGAUCACCCAUGUAACGGACGAAAGUCCGGAGCCCUUGGCAGCACGGUUGCCAAG [(M)'-(Theo1)-(Ms2)-(Theo2)-(M'')-(T2)'_Design1b] | 127 nM
8 | GAGGGUGAAUCUCUAGUCCGUUUGACGGAUACCAGCGAGAGGUAUCGCCCUUGGCAGCCGACGACAUGAGGAUCACCCAUGUUAA [#07 Exclusion-TheophyllineA] | 40.6 nM
9 | GAUAUGGAAACAUGUCAGAUCCUUACCGGUCGAGGACCGGUACGGCCGCCACUCGAAAACGAUGUACAUGAGGAUCACCCAUGUA [Ex Tryptophan A 19] | 14 nM
10 | GCUUGCUUGUAAGGUUCUGUCCGGCGUCGUCGAGGACCGGUACGGCCGCCACUCGCGCGUUUACAUGAGGAUCACCCAUGUCAUG [theeternabot_exclusion_MS2_Trp_A_49] | 40.6 nM
11 | AAUAAUAAGGCGGCCGCCACUAAACAUGAGGAUCACCCAUGUCUCGAGCGCAUACAUAAGGGAUGUAGGACCGGGCCAAUAAUAA [Exclusion - Tryptophan B (Freestyle 1)] | 23.5 nM
12 | AGGUGGCGCGGAAGGAGCGAGUUUGCCUAUUACAUGAGGAUCACCCAUGUGGGUAAUGGGACUCAGGUAGGUCGCCGUUGUCGCU [Same State Arginine B GF 27] | 47.9 nM
13 | GCUGUGAAGUCGGCCGCCACUGGUUAGUUUAACCUCAUGUAACAUGAGGAUCACCCAUGUAAUGUCAGGACCGGGACAACAGCAA [JR_ExcTryptoB_Sub016] | 145 nM
14 | UGUAUGGACUGAAGGAGCGGGAAAUAAACUUGAGGAUCACCCAGGUAAUAGGCGAAAGCCACCCAGGUAGGUCGCAGUCCAUACU | 24.3 nM
15 | ACAUGAGGAUCACCCAUGUAAUAAUCAGAAGGAGCGUGGAAUAACACAGGUAGGUCGCUGAUGUUUGGUUAAAAUUAUUCGUGAA [JR_ExcArginiA_Sub001] | 13.1 nM

Same assay, conditions: Eterna round: R107; input ligand: theophylline 20 uM

Row | Sequence | apparent KD of MS2 coat protein
16 | UAGUUGUAGUCGGCCGCCACUGUGAGCAUGGUUAACAUGAGGAUCACCCAUGUCCCGUACUAUAACAGGACCGGGACGUAGUUGC [#10 Same State - Tryptophan B] | 79.4 nM
17 | GCUAGGUCUACGGCCGCCACUAGACGUGGGUUAAACAUGAGGAUCACCCAUGUGCUACAGGCGCAUAGGACCGGGUAGACCUAGC [SSTB NP+V+V2 #9 +-Same Structure] | 586 nM
18 | GGGCAAGAGGGAAGGAGCGUCAGCUGAGUCACAUGAGGAUCACCCAUGUAGCACAUAGUGUGACAGGUAGGUCGCCCUCUGCCCU [SS-ArgB5] | 14.4 nM
19 | UUCGUUUACGGAAGGAGCGACGGACAUCGGUGAUCUAUGCACAUGAGGAUCACCCAUGUACGUCAGGUAGGUCGCCGUUAAGAGU [XArg-B28] | 96.5 nM
20 | GGUCUCUGGAGCGAUACCAGCUUAAGUGUACUGGCCAGGUACAUGAGGAUCACCCAUGUAAGCCCUUGGCAGCGCUCCAGAGACC [#1 Exclusion - Theophylline B Attempt #14 (HarryS)] | 16.1 nM
21 | AAGGUGAUCCGUGAUACCAGCUCAACAUGAGGAUCACCCAUGUAACGGACGAAAGUCCGGAGCCCUUGGCAGCACGGUUGCCAAG [(M)'-(Theo1)-(Ms2)-(Theo2)-(M'')-(T2)'_Design1b] | 62 nM
22 | AAACAUGACAUGGAUACCAGACACAUGAGGAUCACCCAUGUUGAGGAUCACCCAUGUCCCGUCCCUUGGCAGCCAGCAUGAGGAU [Exclusion Theophylline B 2] | 11.6 nM
23 | GAGGGUGAAUCUCUAGUCCGUUUGACGGAUACCAGCGAGAGGUAUCGCCCUUGGCAGCCGACGACAUGAGGAUCACCCAUGUUAA [#07 Exclusion-TheophyllineA] | 42.6 nM
24 | ACAUUAGCCACGGCCGCCACUGCUUUAUGAUUAUAAGGAUUAAUGAACAUGAGGAUCACCCAUGUCAGGACCGGGUGCCUACCAU [SSTryp B #4] | 42.3 nM
25 | GAUAUGGAAACAUGUCAGAUCCUUACCGGUCGAGGACCGGUACGGCCGCCACUCGAAAACGAUGUACAUGAGGAUCACCCAUGUA [Ex Tryptophan A 19] | 16.2 nM
26 | GCUUGCUUGUAAGGUUCUGUCCGGCGUCGUCGAGGACCGGUACGGCCGCCACUCGCGCGUUUACAUGAGGAUCACCCAUGUCAUG [theeternabot_exclusion_MS2_Trp_A_49] | 38.7 nM
27 | AAUAAUAAGGCGGCCGCCACUAAACAUGAGGAUCACCCAUGUCUCGAGCGCAUACAUAAGGGAUGUAGGACCGGGCCAAUAAUAA [Exclusion - Tryptophan B (Freestyle 1)] | 25.7 nM
28 | AGGUGGCGCGGAAGGAGCGAGUUUGCCUAUUACAUGAGGAUCACCCAUGUGGGUAAUGGGACUCAGGUAGGUCGCCGUUGUCGCU [Same State Arginine B GF 27] | 91.5 nM
29 | AGCAACAAGUCGGCCGCCACUCAUUUAACAUGAGGAUCACCCAUGUGAAUAACAUGGUUGUAAUAGAGGACCGGGACAGUUGCAU [JR_SSTryptoB_Sub016] | 283 nM
30 | AGCACUGUGGCGGCCGCCACUACAUAUAGGGUGGUCAGGCCCAUAAUACAUGAGGAUCACCCAUGUAGGACCGGGCCUCAGUGCA [Omei Trp Exc B A v13] | 20 nM
31 | ACGAUGCGACAUGAGGAUCACCCAUGUGAUACCAGCCUGGAAACAGGCCCUUGGCAGCACAAAUACUCCAGAAACGCAUCGAAUA [MAT - Exclusion Theophlline A - Mod of Eli - D3] | 356 nM
32 | GCUGUGAAGUCGGCCGCCACUGGUUAGUUUAACCUCAUGUAACAUGAGGAUCACCCAUGUAAUGUCAGGACCGGGACAACAGCAA [JR_ExcTryptoB_Sub016] | 236 nM
33 | GAUUGCAUCGAUUCUCCACUCGCACCUGAUACCAGCGAUAGAAUUCGCCCUUGGCAGCAGUACACAUGAGGAUCACCCAUGUUAU [theeternabot_exclusion_MS2_Theo_A_20] | 42.4 nM
